Test results as given in PMC5762392 (Nature biotechnology, 2017).
Non-standard residues stand in square brackets, D forms with d. No end group written: not given here. *: point of attachment. Biotin = O=C1N[C@H]2[C@H](CS[C@H]2CCCCC(=O)*)N1; Lys(Me2) = CN(C)CCCC[C@H](N)C(=O)O

Molecular target: MBP fused to the Tudor domain (residues 1484–1603) of 53BP1 (human, UniProt Q12888 1484-1603)
Assay: pull-down

Sequence of MBP fused to the Tudor domain (residues 1484–1603) of 53BP1 (Q12888 1484-1603): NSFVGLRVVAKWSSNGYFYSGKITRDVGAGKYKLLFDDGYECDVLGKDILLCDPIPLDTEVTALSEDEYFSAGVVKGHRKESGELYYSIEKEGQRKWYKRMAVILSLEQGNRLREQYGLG

IC50: 100 to 300 µM
Binder: {Biotin-Mini‑PEG}-YGKGGAKRHR[Lys(Me2)]VLRD [biotin-labeled peptide derived from histone H4K20me2]
